# Assay results published in paper PMC7505474, “Toll-like receptor 4-mediated inflammation triggered by extracellular IFI16 is enhanced by lipopolysaccharide binding” (PLoS Pathogens, 2020).
# B1: human recombinant IFI16 protein (natural protein, UniProt Q16666-2 1-729, looked up)
# chain: MGKKYKNIVLLKGLEVINDYHFRMVKSLLSNDLKLNLKMREEYDKIQIADLMEEKFRGDAGLGKLIKIFEDIPTLEDLAETLKKEKLKVKGPALSRKRKKEVDATSPAPSTSSTVKTEGAEATPGAQKRKKSTKEKAGPKGSKVSEEQTQPPSPAGAGMSTAMGRSPSPKTSLSAPPNSSSTENPKTVAKCQVTPRRNVLQKRPVIVKVLSTTKPFEYETPEMEKKIMFHATVATQTQFFHVKVLNTSLKEKFNGKKIIIISDYLEYDSLLEVNEESTVSEAGPNQTFEVPNKIINRAKETLKIDILHKQASGNIVYGVFMLHKKTVNQKTTIYEIQDDRGKMDVVGTGQCHNIPCEEGDKLQLFCFRLRKKNQMSKLISEMHSFIQIKKKTNPRNNDPKSMKLPQEQRQLPYPSEASTTFPESHLRTPQMPPTTPSSSFFTKKSEDTISKMNDFMRMQILKEGSHFPGPFMTSIGPAESHPHTPQMPPSTPSSSFLTTLKPRLKTEPEEVSIEDSAQSDLKEVMVLNATESFVYEPKEQKKMFHATVATENEVFRVKVFNIDLKEKFTPKKIIAIANYVCRNGFLEVYPFTLVADVNADRNMEIPKGLIRSASVTPKINQLCSQTKGSFVNGVFEVHKKNVRGEFTYYEIQDNTGKMEVVVHGRLTTINCEEGDKLKLTCFELAPKSGNTGELRSVIHSHIKVIKTRKNKKDILNPDSSMETSPDFFF
# notes: IFI16, human, full-length recombinant protein; The domains were cloned in pET30a and made 'following the same procedure as that for the full-length protein'; In assay a3 and in part of a4 the protein was pre-incubated O/N at 4°C with LPS-EB, which is not a protein; also called full-length IFI16; endotoxin-free IFI16; source: recombinant, produced as previously described [24], purified, endotoxins …
# Legend:
# [1] = target: T1, Recombinant TLR4/MD2 complex (R&D Systems 3146-TM-050/CF) (UniProt O00206 24-631; Q9Y6Y9 19-160); test: SPR; Biacore X100; TLR4/MD2 complex immobilised on a CM5 chip by amine coupling (1,223.9 RU); IFI16 alone 31.25-1,000 nM flowed at 30 μl/min, 25°C, HBS-EP+ buffer; association 120 s, dissociation 180 s; 1:1 binding model; settings: both partners purified
# T1 construct: Toll-like receptor 4 chain of the bought recombinant TLR4/MD2 complex; neither species nor construct limits are stated; MD2 (lymphocyte antigen 96) chain of the bought recombinant TLR4/MD2 complex; also called TLR4/MD2 receptor; source: bought: R&D Systems
# T1 sequence (O00206 24-631, chain 1 of 2): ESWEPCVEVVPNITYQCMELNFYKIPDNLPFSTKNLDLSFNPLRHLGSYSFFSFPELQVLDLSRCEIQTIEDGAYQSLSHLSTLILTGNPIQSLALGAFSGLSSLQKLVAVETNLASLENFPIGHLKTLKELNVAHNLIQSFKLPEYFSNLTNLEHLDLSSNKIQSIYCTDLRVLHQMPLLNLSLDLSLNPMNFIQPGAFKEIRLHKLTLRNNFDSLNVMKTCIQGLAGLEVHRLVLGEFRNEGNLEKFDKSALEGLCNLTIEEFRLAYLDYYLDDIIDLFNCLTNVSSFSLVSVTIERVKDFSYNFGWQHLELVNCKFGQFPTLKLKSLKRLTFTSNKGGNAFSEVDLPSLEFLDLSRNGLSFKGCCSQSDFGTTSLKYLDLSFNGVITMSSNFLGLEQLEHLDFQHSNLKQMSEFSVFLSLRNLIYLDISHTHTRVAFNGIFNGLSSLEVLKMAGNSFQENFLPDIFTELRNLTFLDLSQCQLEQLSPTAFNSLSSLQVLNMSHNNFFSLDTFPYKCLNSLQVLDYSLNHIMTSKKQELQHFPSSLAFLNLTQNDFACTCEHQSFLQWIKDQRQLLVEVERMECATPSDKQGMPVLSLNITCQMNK
# T1 sequence (Q9Y6Y9 19-160, chain 2 of 2): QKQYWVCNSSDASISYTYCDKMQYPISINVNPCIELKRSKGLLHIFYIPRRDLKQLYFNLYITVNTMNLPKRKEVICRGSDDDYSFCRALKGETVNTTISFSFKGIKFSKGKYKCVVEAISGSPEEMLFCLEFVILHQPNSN
# [2] = target: T1, Recombinant TLR4/MD2 complex (R&D …); test: SPR; Biacore X100; TLR4/MD2 complex immobilised on a CM5 chip by amine coupling (1,223.9 RU); analyte is IFI16 pre-complexed with LPS-EB (IFI16/LPS-EB complex), 31.25-1,000 nM, 30 μl/min, 25°C, HBS-EP+ buffer; association 120 s, dissociation 180 s; 1:1 binding model; settings: both partners purified
binder,measurement,setting,value
B1,Kd,[1],677 nM
same,koff,[1],0.00614 s⁻¹
same,kon,[1],9070 M⁻¹ s⁻¹
same,Kd,[2],4010 nM
same,koff,[2],0.0143 s⁻¹
same,kon,[2],3570 M⁻¹ s⁻¹
